Tested on: HIV-1 Tat Tat-1 delta1-47 (Human immunodeficiency virus 1 (HXB2))
Assay: EMSA
Conditions: truncated Tat-1 (construct assumed delta1-47)

## HIV-2 TAR-2 RNA wt (+1 to +123)
  binding signal (fold higher affinity than for TAR-1): 4
